Laboratory results published in the supplement of paper PMC10567573.

B1: SNAP91 (parent)
chain: FAAPSPATTASPAKVDSSGVIDLF
B2: RTN1 (parent)
chain: VVAYLALAALSATISFRIYKSVLQ

Variants of: B1
Experiment: protein stability index of a GFP-peptide fusion (GPS, HEK-293T) (PSI 1-6); higher = more stable
Settings: c terminus: a fixed tail appended
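Also: lentivirally expressed fusions sorted by FACS into six bins by GFP to DsRed ratio, PSI derived from sequencing read proportions per bin multiplied by bin number.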

**Q.** For FAAPSPATTASPAKVDSSGVIDLG [F24G], which protein stability index is on record?
**A.** 4.35

**Q.** Which protein stability index does the source give for FAAPSPATTASPAKVDSSGVIDLD [F24D] here?
**A.** 4.54

**Q.** Which protein stability index does the source give for FAAPSPATTASPAKVDSSGVIDLA [F24A] here?
**A.** 4.03

**Q.** For FAAPSPATTASPAKVDSSGVIDLK [F24K], which protein stability index is on record?
**A.** 4.2

**Q.** For FAAPSPATTASPAKVDSSGVIDLS [F24S], which protein stability index is on record?
**A.** 3.77

**Q.** With FAAPSPATTASPAKVDSSGVIDLT [F24T] as the variant, how does the protein stability index read?
**A.** 3.75

**Q.** Which protein stability index does the source give for FAAPSPATTASPAKVDSSGVIDLW [F24W] here?
**A.** 1.22

**Q.** With FAAPSPATTASPAKVDSSGVIDLE [F24E] as the variant, how does the protein stability index read?
**A.** 4.51

**Q.** With FAAPSPATTASPAKVDSSGVIDLP [F24P] as the variant, how does the protein stability index read?
**A.** 4.31

**Q.** With FAAPSPATTASPAKVDSSGVIDLY [F24Y] as the variant, how does the protein stability index read?
**A.** 2.88

**Q.** Which protein stability index does the source give for FAAPSPATTASPAKVDSSGVIDLM [F24M] here?
**A.** 3.72

**Q.** With FAAPSPATTASPAKVDSSGVIDLQ [F24Q] as the variant, how does the protein stability index read?
**A.** 3.85

**Q.** With FAAPSPATTASPAKVDSSGVIDLH [F24H] as the variant, how does the protein stability index read?
**A.** 4.52

**Q.** With FAAPSPATTASPAKVDSSGVIDLL [F24L] as the variant, how does the protein stability index read?
**A.** 3.13

**Q.** For FAAPSPATTASPAKVDSSGVIDLV [F24V], which protein stability index is on record?
**A.** 3.99

**Q.** For FAAPSPATTASPAKVDSSGVIDLN [F24N], which protein stability index is on record?
**A.** 4.1

**Q.** Which protein stability index does the source give for FAAPSPATTASPAKVDSSGVIDLI [F24I] here?
**A.** 3.34

**Q.** With FAAPSPATTASPAKVDSSGVIDLR [F24R] as the variant, how does the protein stability index read?
**A.** 3.56

**Q.** For FAAPSPATTASPAKVDSSGVITLF [D22T], which protein stability index is on record?
**A.** 1.73

**Q.** For FAAPSPATTASPAKVDSSGVINLF [D22N], which protein stability index is on record?
**A.** 2.24

**Q.** With FAAPSPATTASPAKVDSSGVIMLF [D22M] as the variant, how does the protein stability index read?
**A.** 2.81

**Q.** Which protein stability index does the source give for FAAPSPATTASPAKVDSSGVISLF [D22S] here?
**A.** 1.76

**Q.** With FAAPSPATTASPAKVDSSGVIRLF [D22R] as the variant, how does the protein stability index read?
**A.** 1.87

**Q.** With FAAPSPATTASPAKVDSSGVIQLF [D22Q] as the variant, how does the protein stability index read?
**A.** 2.26

**Q.** Which protein stability index does the source give for FAAPSPATTASPAKVDSSGVIPLF [D22P] here?
**A.** 2.68

**Q.** Which protein stability index does the source give for FAAPSPATTASPAKVDSSGVIYLF [D22Y] here?
**A.** 2.04

**Q.** Which protein stability index does the source give for FAAPSPATTASPAKVDSSGVIVLF [D22V] here?
**A.** 1.75

**Q.** With FAAPSPATTASPAKVDSSGVIDDF [L23D] as the variant, how does the protein stability index read?
**A.** 4.69

**Q.** Which protein stability index does the source give for FAAPSPATTASPAKVDSSGVIDEF [L23E] here?
**A.** 4.4

**Q.** With FAAPSPATTASPAKVDSSGVIDNF [L23N] as the variant, how does the protein stability index read?
**A.** 4.14

**Q.** With FAAPSPATTASPAKVDSSGVIDYF [L23Y] as the variant, how does the protein stability index read?
**A.** 3.2

**Q.** For FAAPSPATTASPAKVDSSGVIDAF [L23A], which protein stability index is on record?
**A.** 3.78

**Q.** For FAAPSPATTASPAKVDSSGVIDQF [L23Q], which protein stability index is on record?
**A.** 4.46

**Q.** With FAAPSPATTASPAKVDSSGVIDGF [L23G] as the variant, how does the protein stability index read?
**A.** 3.51

**Q.** Which protein stability index does the source give for FAAPSPATTASPAKVDSSGVIDTF [L23T] here?
**A.** 3.74

**Q.** Which protein stability index does the source give for FAAPSPATTASPAKVDSSGVIDRF [L23R] here?
**A.** 3.76

**Q.** For FAAPSPATTASPAKVDSSGVIDPF [L23P], which protein stability index is on record?
**A.** 3.74

**Q.** Which protein stability index does the source give for FAAPSPATTASPAKVDSSGVIDVF [L23V] here?
**A.** 2.83

**Q.** With FAAPSPATTASPAKVDSSGVIDCF [L23C] as the variant, how does the protein stability index read?
**A.** 2.79

**Q.** With FAAPSPATTASPAKVDSSGVIDKF [L23K] as the variant, how does the protein stability index read?
**A.** 4.12

**Q.** With FAAPSPATTASPAKVDSSGVIDSF [L23S] as the variant, how does the protein stability index read?
**A.** 4.11

**Q.** For FAAPSPATTASPAKVDSSGVIDHF [L23H], which protein stability index is on record?
**A.** 4.27

**Q.** For FAAPSPATTASPAKVDSSGVIDFF [L23F], which protein stability index is on record?
**A.** 2.29

**Q.** With FAAPSPATTASPAKVDSSGVIDMF [L23M] as the variant, how does the protein stability index read?
**A.** 3.25

**Q.** With FAAPSPATTASPAKVDSSGVIDIF [L23I] as the variant, how does the protein stability index read?
**A.** 2.51

**Q.** With FAAPSPATTASPAKVDSSGVIDWF [L23W] as the variant, how does the protein stability index read?
**A.** 2.55

Variants of: B2
Experiment: as above
Settings: c terminus: a fixed tail appended

**Q.** Which protein stability index does the source give for VVAYLALAALSATISFRIYKQVLQ [S21Q] here?
**A.** 2.56

**Q.** For VVAYLALAALSATISFRIYKRVLQ [S21R], which protein stability index is on record?
**A.** 1.99

**Q.** For VVAYLALAALSATISFRIYKVVLQ [S21V], which protein stability index is on record?
**A.** 4.53

**Q.** With VVAYLALAALSATISFRIYKWVLQ [S21W] as the variant, how does the protein stability index read?
**A.** 2.52

**Q.** Which protein stability index does the source give for VVAYLALAALSATISFRIYKHVLQ [S21H] here?
**A.** 1.9

**Q.** For VVAYLALAALSATISFRIWKSVLQ [Y19W], which protein stability index is on record?
**A.** 1.49

**Q.** For VVAYLALAALSATISFRISKSVLQ [Y19S], which protein stability index is on record?
**A.** 2.1

**Q.** Which protein stability index does the source give for VVAYLALAALSATISFRIFKSVLQ [Y19F] here?
**A.** 1.46

**Q.** Which protein stability index does the source give for VVAYLALAALSATISFRIRKSVLQ [Y19R] here?
**A.** 3.4

**Q.** For VVAYLALAALSATISFRIAKSVLQ [Y19A], which protein stability index is on record?
**A.** 2.51

**Q.** With VVAYLALAALSATISFRILKSVLQ [Y19L] as the variant, how does the protein stability index read?
**A.** 1.46

**Q.** Which protein stability index does the source give for VVAYLALAAWSATISFRIYKSVLQ [L10W] here?
**A.** 2.44

**Q.** Which protein stability index does the source give for VVAYLALAAASATISFRIYKSVLQ [L10A] here?
**A.** 2.38

**Q.** Which protein stability index does the source give for VVAYLALAAQSATISFRIYKSVLQ [L10Q] here?
**A.** 2.41

**Q.** For VVAYLALAAYSATISFRIYKSVLQ [L10Y], which protein stability index is on record?
**A.** 2.83

**Q.** Which protein stability index does the source give for VVAYLALAACSATISFRIYKSVLQ [L10C] here?
**A.** 2.2

**Q.** With VEAYLALAALSATISFRIYKSVLQ [V2E] as the variant, how does the protein stability index read?
**A.** 2.41

**Q.** For VGAYLALAALSATISFRIYKSVLQ [V2G], which protein stability index is on record?
**A.** 1.72

**Q.** With VMAYLALAALSATISFRIYKSVLQ [V2M] as the variant, how does the protein stability index read?
**A.** 2.66

**Q.** With VDAYLALAALSATISFRIYKSVLQ [V2D] as the variant, how does the protein stability index read?
**A.** 2.43

**Q.** With VYAYLALAALSATISFRIYKSVLQ [V2Y] as the variant, how does the protein stability index read?
**A.** 3

**Q.** For VKAYLALAALSATISFRIYKSVLQ [V2K], which protein stability index is on record?
**A.** 4.51

**Q.** With VLAYLALAALSATISFRIYKSVLQ [V2L] as the variant, how does the protein stability index read?
**A.** 2.63

**Q.** For VVAYLALAALSATRSFRIYKSVLQ [I14R], which protein stability index is on record?
**A.** 3.01

**Q.** For VVAYLALAALSATMSFRIYKSVLQ [I14M], which protein stability index is on record?
**A.** 3.4

**Q.** For VVAYLALAALSATGSFRIYKSVLQ [I14G], which protein stability index is on record?
**A.** 2.49

**Q.** Which protein stability index does the source give for VVAYLALAALSATESFRIYKSVLQ [I14E] here?
**A.** 3.06

**Q.** Which protein stability index does the source give for VVAYLALAALSATISLRIYKSVLQ [F16L] here?
**A.** 2.57

**Q.** For VVAYLALAALSATISYRIYKSVLQ [F16Y], which protein stability index is on record?
**A.** 3.52

**Q.** With VVAYLALAALSATISKRIYKSVLQ [F16K] as the variant, how does the protein stability index read?
**A.** 1.86

**Q.** With VVAYLALAALSATISVRIYKSVLQ [F16V] as the variant, how does the protein stability index read?
**A.** 2.15

**Q.** Which protein stability index does the source give for VVAYLALAALSATISDRIYKSVLQ [F16D] here?
**A.** 2.94

**Q.** For VVAYLALAALSATISARIYKSVLQ [F16A], which protein stability index is on record?
**A.** 2.88

**Q.** For VVAYLALAALSATISSRIYKSVLQ [F16S], which protein stability index is on record?
**A.** 2.99

**Q.** Which protein stability index does the source give for VVAYLALAALSATISERIYKSVLQ [F16E] here?
**A.** 1.76

**Q.** Which protein stability index does the source give for IVAYLALAALSATISFRIYKSVLQ [V1I] here?
**A.** 2.75

**Q.** For MVAYLALAALSATISFRIYKSVLQ [V1M], which protein stability index is on record?
**A.** 2.21

**Q.** For AVAYLALAALSATISFRIYKSVLQ [V1A], which protein stability index is on record?
**A.** 3.01

**Q.** For WVAYLALAALSATISFRIYKSVLQ [V1W], which protein stability index is on record?
**A.** 1.72

**Q.** With CVAYLALAALSATISFRIYKSVLQ [V1C] as the variant, how does the protein stability index read?
**A.** 1.99

**Q.** With FVAYLALAALSATISFRIYKSVLQ [V1F] as the variant, how does the protein stability index read?
**A.** 2.66

**Q.** With GVAYLALAALSATISFRIYKSVLQ [V1G] as the variant, how does the protein stability index read?
**A.** 1.96

**Q.** Which protein stability index does the source give for EVAYLALAALSATISFRIYKSVLQ [V1E] here?
**A.** 3.26

**Q.** For LVAYLALAALSATISFRIYKSVLQ [V1L], which protein stability index is on record?
**A.** 2.56

**Q.** For VVAYLALAVLSATISFRIYKSVLQ [A9V], which protein stability index is on record?
**A.** 2.94

**Q.** With VVAYLALAILSATISFRIYKSVLQ [A9I] as the variant, how does the protein stability index read?
**A.** 2.31

**Q.** For VVAYLALAGLSATISFRIYKSVLQ [A9G], which protein stability index is on record?
**A.** 1.53

**Q.** Which protein stability index does the source give for VVAYLALAWLSATISFRIYKSVLQ [A9W] here?
**A.** 1.94
